The values that follow come from article PMC4681436.

Series [1] addresses AidC, N-acyl-L-homoserine lactone (AHL) lactonase from Chryseobacterium sp. strain StRB126 (Chryseobacterium sp. strain StRB126). Briefly: SEC-MALS. For orientation: SEC sorts molecules by how far they enter the pores of the column.
For series [2], the system named is CCCCCCCC(=O)N[C@H]1CCOC1=O. Kind of series: purified protein. Particulars: 1 mM Hepes pH 7.5, 30 μM ZnSO4, 1% methanol, dizinc enzyme.
The subject of series [3] is CCCCCC(=O)CC(=O)N[C@H]1CCOC1=O. Briefly: purified protein. Particulars: 1 mM Hepes pH 7.5, 30 μM ZnSO4, 1% methanol, dizinc enzyme.
Another series deals with CC(C)(C)OC(=O)NC1CCOC1=O. Kind of series: purified protein. Particulars: 1 mM Hepes pH 7.5, 30 μM ZnSO4, 1% methanol, dizinc enzyme.
The subject of series [4] is CCCCCCCCCCCC(=O)N[C@H]1CCOC1=O. Kind of series: purified protein. Particulars: 1 mM Hepes pH 7.5, 30 μM ZnSO4, 1% methanol, dizinc enzyme.
The subject of the next series is CCCCCC(=O)N[C@H]1CCOC1=O. Briefly: purified protein. The settings on record: 1 mM Hepes pH 7.5, 30 μM ZnSO4, 1% methanol, dizinc enzyme.
For a further series, the system named is CCCCC(=O)N[C@H]1CCOC1=O. Briefly: purified protein. The settings on record: 1 mM Hepes pH 7.5, 30 μM ZnSO4, 1% methanol, dizinc enzyme.
The subject of series [5] is CCCCCCCCCC(=O)N[C@H]1CCOC1=O. Briefly: purified protein. Particulars: 1 mM Hepes pH 7.5, 30 μM ZnSO4, 1% methanol, dizinc enzyme.
The subject of series [6] is CCCCCCC(=O)N[C@H]1CCOC1=O. Kind of series: purified protein. The settings on record: 1 mM Hepes pH 7.5, 30 μM ZnSO4, 1% methanol, dizinc enzyme.
Series [7] deals with O=C(/C=C/c1ccccc1)N[C@H]1CCOC1=O. Kind of series: purified protein. The settings on record: 1 mM Hepes pH 7.5, 30 μM ZnSO4, 1% methanol, dizinc enzyme.
A further series relates to CCCC(=O)N[C@H]1CCOC1=O. Kind of series: purified protein. The settings on record: 1 mM Hepes pH 7.5, 30 μM ZnSO4, 1% methanol, dizinc enzyme.

The stoichiometry N is the number of molecules, sites or subunits per partner or assembly. In general, Km refers to the concentration of substrate that gives half-maximal velocity. The term kcat denotes the number of substrate molecules converted per active site and unit of time at saturation. The term kcat/Km denotes the turnover number divided by the Michaelis constant.

Where “and” joins values, the source holds several entries; their conditions need not be identical. Identical values can stand only once.

For “AidC, N-acyl-L-homoserine lactone (AHL) lactonase from Chryseobacterium sp. strain StRB126 (enzyme)”, the stoichiometry N in series [1] was 2 and 4.

AidC (Chryseobacterium sp. StRB126): the Km amounted to 83 ± 10 µM in [2]; 130 ± 20 µM in [3]; 740 ± 70 µM with CC(C)(C)OC(=O)NC1CCOC1=O; 7 ± 4 µM in series [4]; 61 ± 4 µM with CCCCCC(=O)N[C@H]1CCOC1=O; 130 ± 20 µM in the series on CCCCC(=O)N[C@H]1CCOC1=O. The Michaelis-Menten constant (Km) in series [5] was found to be 12 ± 4 µM; in series [6], 47 ± 5 µM; in series [7] it was 470 ± 80 µM; in the series on CCCC(=O)N[C@H]1CCOC1=O, 470 ± 60 µM. Besides, the turnover number (kcat) in series [2] was determined as 45 ± 3 s⁻¹; in series [3], 28 ± 1 s⁻¹; in the series with CC(C)(C)OC(=O)NC1CCOC1=O it was 44 ± 1 s⁻¹; in series [4] it was 0.4 ± 0.05 s⁻¹; in the series on CCCCCC(=O)N[C@H]1CCOC1=O, 59 ± 1 s⁻¹; in the series on CCCCC(=O)N[C@H]1CCOC1=O it was 57 ± 3 s⁻¹. In addition, the kcat was 5.2 ± 0.4 s⁻¹ in series [5], 80 ± 2 s⁻¹ in series [6], 25 ± 2 s⁻¹ in series [7] and 39 ± 2 s⁻¹ in the series with CCCC(=O)N[C@H]1CCOC1=O. For the same substance, the kcat/Km in [2] stood at 540000 M⁻¹ s⁻¹; in series [3], 220000 M⁻¹ s⁻¹; with CC(C)(C)OC(=O)NC1CCOC1=O, 59000 M⁻¹ s⁻¹; in series [4] it was 57000 M⁻¹ s⁻¹; in the series on CCCCCC(=O)N[C@H]1CCOC1=O it was 970000 M⁻¹ s⁻¹; with CCCCC(=O)N[C@H]1CCOC1=O it was 440000 M⁻¹ s⁻¹. In addition, the specificity constant (kcat/Km) in [5] came out at 430000 M⁻¹ s⁻¹; in series [6], 1.7e+06 M⁻¹ s⁻¹; in series [7], 53000 M⁻¹ s⁻¹; with CCCC(=O)N[C@H]1CCOC1=O it was 83000 M⁻¹ s⁻¹.
